Experimental findings from the RNAGym collection of RNA variant scans (doi:10.7554/elife.90254) are described below.

B1: LINE1-full (parent)
chain: UACGUAGGUGGUUUUCCCCUGAUAGUGCUAAGGGGGCCUGGAAGUUUGGACUGGGCAGAGCUCAACACAGCGUGGCAAAGUGGCUGUGGCUAGACUGCCUCUCUGGAUUCCUCGUCACUCAGCAGGGCAUCUCUGAGAGAAAUGCC

Variants of B1 are the subject of this data set. Put plainly: self-cleavage, relative activity (ratio to wild type); higher = more cleavage; in vitro, sequencing; the parent is a self-cleaving ribozyme.
With G34A C103U, the self-cleavage amounted to 1.7.

For G35A A67G, the self-cleavage came to 0.22.

G35A A136U: the self-cleavage was 1.1.

G34A A79G: the self-cleavage was found to be 1.11.

G34A A79U: the self-cleavage was found to be 2.33.

As to G35A U39C, the self-cleavage was 0.53.

Turning to G36C A64C, the self-cleavage is 0.35.

As for G32A G97U, the self-cleavage was found to be 0.1.

In the case of G33A A107G, the self-cleavage came out at 1.52.

Regarding G32U U52A, the self-cleavage is 1.85.

As for G32C U81C, the self-cleavage was 0.55.

Take G32C U81A: the self-cleavage was 1.9.

Consider G33C A129U, for which the self-cleavage was 1.69.

In the case of G32U A117G, the self-cleavage was determined as 1.13.

In the case of G35A U108C, the self-cleavage was determined as 1.11.

G35A U104C: the self-cleavage turned out to be 1.42.

On to G32A A140G, for which the self-cleavage was found to be 1.61.

As to G32C, the self-cleavage worked out at 1.23.

Regarding G32U, the self-cleavage is 0.98.

Turning to G32A, the self-cleavage is 1.23.

In the case of G33U G114A, the self-cleavage is 1.36.

As for G36A C63U, the self-cleavage was 0.36.

In the case of G33C C128U, the self-cleavage is 0.92.

Consider G34C U47C, for which the self-cleavage turned out to be 1.79.

As for G34C U47A, the self-cleavage is 0.64.

In the case of G33A U115C, the self-cleavage stood at 1.48.

G34C A77U: the self-cleavage is 1.18.

Regarding G34C A77G, the self-cleavage is 1.64.

For G34C G82A, the self-cleavage came to 2.16.

For the variant G32A U39A, the self-cleavage turned out to be 1.66.

Consider G32A G89U, for which the self-cleavage came out at 0.04.

As to G35C A67G, the self-cleavage came out at 0.22.

Take G34A U46C: the self-cleavage was 1.27.

For G32U A121U, the self-cleavage stood at 0.

In the case of G35U C110U, the self-cleavage is 1.51.

Regarding G32U A42G, the self-cleavage is 1.07.

In the case of G36A U45G, the self-cleavage stood at 0.92.

With G35C U134A, the self-cleavage was 0.71.

With G32A C84U, the self-cleavage came to 0.21.

In the case of G36U U52A, the self-cleavage is 0.64.

On to G36C A140G, for which the self-cleavage amounted to 1.12.

G34A A92G: the self-cleavage stood at 0.08.

Regarding G35U A140G, the self-cleavage came out at 1.21.

G35U A140U: the self-cleavage worked out at 1.19.

With G34A U85A, the self-cleavage was 0.1.

In the case of G34A U85C, the self-cleavage was found to be 0.12.

As to G34A U108C, the self-cleavage came out at 1.16.

Turning to G34A U108G, the self-cleavage is 1.55.

With G35U G127A, the self-cleavage was 1.22.

On to G34U U109C, for which the self-cleavage turned out to be 1.52.

With G32A A42G, the self-cleavage was found to be 1.27.

G32U A77G: the self-cleavage was 3.

Take G32U A77C: the self-cleavage turned out to be 1.31.

As to G33U A64G, the self-cleavage stood at 0.21.

Take G33U A64U: the self-cleavage came out at 0.41.

Turning to G32C A77U, the self-cleavage is 0.81.

Turning to G32A A94G, the self-cleavage stood at 0.36.

Regarding G35U G75C, the self-cleavage is 0.77.

For the variant G36U U119A, the self-cleavage is 1.4.

As for G32A C71U, the self-cleavage came out at 0.91.

Take G34U A138U: the self-cleavage amounted to 1.19.

Take G34U A138G: the self-cleavage was 1.56.

Consider G36A U39A, for which the self-cleavage was 1.3.

On to G36C G55A, for which the self-cleavage is 0.13.

Take G34A A121U: the self-cleavage turned out to be 1.22.

As to G34A A121G, the self-cleavage was found to be 1.16.

For the variant G34U U81C, the self-cleavage came to 2.12.

For the variant G34C A107G, the self-cleavage was 1.12.

As for G32U C116U, the self-cleavage is 1.15.

In the case of G33A A138G, the self-cleavage turned out to be 1.36.

For G35C U96C, the self-cleavage is 0.26.

G35A A138G: the self-cleavage came out at 1.22.

Take G33U U47C: the self-cleavage was 1.73.

Consider G32U A79G, for which the self-cleavage was found to be 0.97.

G32A A65U: the self-cleavage was 0.1.

Turning to G32A A65G, the self-cleavage was determined as 0.11.

Consider G33C A79G, for which the self-cleavage came to 1.78.

Turning to G34A A67G, the self-cleavage was 0.35.

As for G35A A92G, the self-cleavage worked out at 0.02.

G35A A43G: the self-cleavage came to 0.71.

As for G34U C116U, the self-cleavage worked out at 1.46.

Regarding G36A U108C, the self-cleavage was 1.37.

As to G36A U108A, the self-cleavage is 1.23.

As for G33A A142G, the self-cleavage was 1.2.

Consider G35A G125U, for which the self-cleavage stood at 1.03.

As to G35A U100A, the self-cleavage came to 0.31.

Turning to G34U U119C, the self-cleavage worked out at 1.7.

As for G32C A142G, the self-cleavage was 1.58.

In the case of G36U U134C, the self-cleavage was determined as 1.99.

In the case of G33U A50U, the self-cleavage was found to be 1.14.

G36A A78G: the self-cleavage turned out to be 1.32.

For the variant A31U U134C, the self-cleavage came out at 1.2.

Turning to G34C A136G, the self-cleavage was determined as 1.79.

With G35A A121U, the self-cleavage was determined as 0.97.

G32U A78G: the self-cleavage stood at 0.94.

For the variant G34U G48A, the self-cleavage is 1.49.

On to G34A A140G, for which the self-cleavage stood at 0.5.

Consider G32A U87A, for which the self-cleavage came to 0.03.

With G32U A50G, the self-cleavage was determined as 0.69.

For G35U U100C, the self-cleavage was found to be 1.85.

Consider G33U G75A, for which the self-cleavage was found to be 0.78.

For G34U A64G, the self-cleavage was determined as 0.36.

Consider G33U A59U, for which the self-cleavage was 0.62.

With G32A U62C, the self-cleavage came to 0.07.

For the variant G32A U62A, the self-cleavage is 0.08.

As to G33C A59G, the self-cleavage turned out to be 0.

Consider G35U U104A, for which the self-cleavage was found to be 1.31.

On to A31U U143A, for which the self-cleavage worked out at 0.78.

As for G36A A50U, the self-cleavage came out at 1.16.

As to G36U U143C, the self-cleavage was determined as 1.16.

For the variant G34A A141G, the self-cleavage turned out to be 1.41.

As for G34U, the self-cleavage came out at 1.43.

G34C: the self-cleavage was found to be 1.47.

G34A: the self-cleavage turned out to be 1.16.

Take G34A A138G: the self-cleavage stood at 1.68.

With G34U A141G, the self-cleavage is 1.56.

G34C A141G: the self-cleavage came to 1.66.

With G36C U87C, the self-cleavage is 0.25.

Take G34A A142G: the self-cleavage was determined as 1.45.

As for G32U U119A, the self-cleavage was found to be 0.

As to G34U U143G, the self-cleavage worked out at 1.01.

Take G35C U47C: the self-cleavage amounted to 1.84.

Turning to G33A A77U, the self-cleavage amounted to 1.47.

G32A C113U: the self-cleavage stood at 1.43.

For the variant G32A A138G, the self-cleavage turned out to be 1.16.

On to G32A U102C, for which the self-cleavage was 1.62.

On to G36U U108C, for which the self-cleavage came to 1.62.

As for G33U U130A, the self-cleavage is 0.9.

On to G32U G83U, for which the self-cleavage came out at 0.6.

Regarding G34A A43C, the self-cleavage was determined as 1.23.

Turning to G34A A43G, the self-cleavage amounted to 0.73.

As for G32U U73C, the self-cleavage was 1.1.

Consider G34A U115A, for which the self-cleavage was 1.08.

G34A U115C: the self-cleavage turned out to be 2.03.

As to G36U U45C, the self-cleavage amounted to 1.13.

Turning to G32U U85A, the self-cleavage amounted to 0.09.

Take G32U U85C: the self-cleavage was 0.17.

On to G35U A124U, for which the self-cleavage came to 1.41.

As for G32A G75C, the self-cleavage was found to be 0.65.

As to G36C U104C, the self-cleavage is 1.87.

For the variant G36U A94G, the self-cleavage amounted to 0.12.

G36A A142G: the self-cleavage worked out at 1.09.

Regarding G36A U102C, the self-cleavage was 1.14.

G36C U81C: the self-cleavage is 0.9.

For G35U U52A, the self-cleavage is 0.51.

For G33A A57G, the self-cleavage worked out at 0.56.

G32A U85C: the self-cleavage was 0.16.

As for G32A U85A, the self-cleavage is 0.14.

In the case of G34U U132C, the self-cleavage is 1.51.

Turning to G36U U62A, the self-cleavage is 0.03.

With G32A U47C, the self-cleavage worked out at 1.58.

As for G32A U47A, the self-cleavage was found to be 1.37.

Regarding G32A A92U, the self-cleavage is 0.75.

With G34C C56G, the self-cleavage was 0.03.

Regarding G34A U52A, the self-cleavage turned out to be 1.7.

For G34A U52C, the self-cleavage turned out to be 1.1.

As to G34A A57G, the self-cleavage was found to be 1.21.

With G32A A136U, the self-cleavage came out at 0.45.

For G32A A136G, the self-cleavage worked out at 1.35.

Take G32U U39A: the self-cleavage was found to be 1.06.

As for G34U U134A, the self-cleavage amounted to 1.04.

Consider G34U U134C, for which the self-cleavage amounted to 1.57.

With G34A U102C, the self-cleavage amounted to 1.43.

Take G32A A107U: the self-cleavage was found to be 1.27.

On to G32A A107C, for which the self-cleavage turned out to be 1.91.

Take G32A A67U: the self-cleavage came out at 0.09.

With G33A A50G, the self-cleavage was determined as 1.02.
